Data as given in patent publication US20230064978A1, “CYCLIC PEPTIDE RECEPTOR LANTHIONINE SYNTHETASE C-LIKE PROTEIN (LANCL) AND USES THEREOF” (LATERAL IP PTY LTD, priority 2019, published 2023).
“Also recorded” adds a separate entry of the source. Bridges are numbered along the chain shown (N, C = ends). Where no end group is shown, it is not given here.

What was measured:
Format in all cases: binding
[1] = target: T1, human recombinant LANCL3 (Homo sapiens, UniProt Q6ZV70); assay: In-gel fluorescence: photolabelling of recombinant LANCL3 with PAL probe, with or without excess LAT8881
T1 construct: human recombinant LANCL3 (amino acid residues 1-420); 10xHis (N); Myc (C); purchased ABCAM ab163277; host or cells: E. coli
Description: An in-gel fluorescence protocol was followed to determine whether the cyclic peptides bound to LANCL2 and LANCL3. Briefly:
1. LANCL2 and LANCL3 Labelling, Assay on 96 Well Plate, Volume of the Reaction 40 μl in PBS
• […] of human recombinant LANCL3 (amino acid residues 1-420; ABCAM catalog no. ab163277, ˜0.07 mg/ml; expressed in E. Coli and incorporating an N-terminal 10×His tag and a C-terminal Mvc tag; UniProt Accession no: Q6ZV70);
• Vehicle DMSO • ±LAT8881 (a cyclic peptide fragment of human growth hormone; SEQ ID NO:1) • SEQ ID NO:1 as competitor @ 50, 100 or 200 μM, pre-incubation 10 min, […], incubation 30 min at room temperature on a plate agitator (protected from light), 4 μl of a stock solution @10 μM
• Irradiation @ 365 nm 20 min (4° C., on a support containing ice) • Transfer 40 μl in a clean Eppendorf tube
• Reduction: DTT 10 mM, 30 min @ 56° C. • Alkylation: Iodoacétamide 30 mM, 45 min @ RT Click-iT AzideTamra of 60 μL samples
• Acetone Precipitation −20° C. ON • Dry pellet resuspended in 30 μL 1% SDS in 50 mM Tris-HCl pH 7.5 • Photolabeled LANCL1 was tagged with tetramethylrhodamine (TAMRA) azide @100 μM TAMRA azide by copper click chemistry using the Click-iT Protein Reaction Buffer Kit (ThermoFisher Scientific) for 30 minutes • Precipitation using the chloroform-methanol method, pellet was air-dried for 10 min at room temperature, resuspended in 30 μL SDS loading buffer (Bio Rad XT Sample Buffer containing 2.5% v/v 2-mercaptoethanol) and heated (60° C., 30 min)
• SDS-PAGE (4-15% Criterion™ TGX Stain-Free™ Protein Gel, Bio Rad) • Analyzed by in-gel fluorescence scanning using a ChemiDoc™ MP Imaging System (Bio Rad) with a green LED light as an excitation source and a BP600/20 nm emission filter

[2] = target: T2, LANCL1 (Rattus norvegicus, UniProt Q9QX69); assay: Streptavidin pull-down of probe-labelled proteins from spinal cord microsomal fraction, anti-LANCL1 Western Blot; parameters: from tissue; host or cells: rat spinal cord, microsomal fraction
Description: To confirm the LANCL1 enrichment observed by mass spectrometry sequencing pull-down experiments, commercial antibodies to LANCL1 (polyclonal rabbit anti-LANCL1, PA557107 from Invitrogen) were used to identify the presence of the LANCL1 in nerve microsome preparations. Briefly, rat spinal cord were lysed in lysate buffer, (sodium phosphate buffer 5 mM pH7.4, sucrose 0.32M+protease inhibitors (cOmplete ULTRA tablets from Roche, mini easy pack, 05892970001)). All the following steps were done on ice. The samples were homogenized, and the total extract centrifuged at 10000 g during 20 minutes. The supernatant was kept and the lysis step was repeated on the pellet adding 10 ml more of lysis buffer, followed by a new centrifugation step. This step extraction was done two times as described and the supernatants were pooled before centrifugation at 105000 g using the Ti50.2 Beckman rotor for 90 minutes at 4° C. The pellet was kept as a microsomal fraction and stored at −80° C. […] Images acquired with the ChemiDoc™ MP Imaging System were analyzed with Imagelab software (Bio-Rad).

[3] = target: T2, LANCL1; assay: Mass spectrometry of excised gel bands from PAL cross-linked homogenates (PALMS); parameters: from tissue; host or cells: nerve tissue homogenate of neuropathic animals
From the text: Having identified at least three molecular weight bands as representative of the potential targets, the 12-15 kD, 37 kD and 50 kD regions of the gel were excised, subjected to limited proteolysis and analysed by mass spectrometry to identify peptides from proteins that were differentially enriched. The detection of at least two different peptides from a protein that is enriched in the LAT9991-PAL cross-linked samples when compared to (i) the un-crosslinked samples and (ii) LAT9991-PAL in the presence of excess LAT8881 (SEQ ID NO:1; YLRIVQCRSVEGSCGF) was considered a positive signature. LAT9991-PAL, LAT9993-PAL and LAT7771-PAL were also used. LAT9993 (SEQ ID NO:41) has the amino acid sequence SCRSRPVESSC.

T1 sequence (Q6ZV70 whole entry, the tested form may be a part): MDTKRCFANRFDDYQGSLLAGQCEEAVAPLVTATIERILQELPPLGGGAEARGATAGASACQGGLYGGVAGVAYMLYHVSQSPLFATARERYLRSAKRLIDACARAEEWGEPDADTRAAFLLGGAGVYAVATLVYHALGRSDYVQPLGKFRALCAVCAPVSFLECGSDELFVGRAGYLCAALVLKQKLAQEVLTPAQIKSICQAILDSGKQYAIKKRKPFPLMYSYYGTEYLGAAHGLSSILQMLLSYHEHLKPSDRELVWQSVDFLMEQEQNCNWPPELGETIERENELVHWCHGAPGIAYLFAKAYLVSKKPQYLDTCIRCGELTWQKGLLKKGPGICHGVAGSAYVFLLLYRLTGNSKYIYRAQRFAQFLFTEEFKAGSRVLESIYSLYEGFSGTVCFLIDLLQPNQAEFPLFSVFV
T2 sequence (Q9QX69 whole entry): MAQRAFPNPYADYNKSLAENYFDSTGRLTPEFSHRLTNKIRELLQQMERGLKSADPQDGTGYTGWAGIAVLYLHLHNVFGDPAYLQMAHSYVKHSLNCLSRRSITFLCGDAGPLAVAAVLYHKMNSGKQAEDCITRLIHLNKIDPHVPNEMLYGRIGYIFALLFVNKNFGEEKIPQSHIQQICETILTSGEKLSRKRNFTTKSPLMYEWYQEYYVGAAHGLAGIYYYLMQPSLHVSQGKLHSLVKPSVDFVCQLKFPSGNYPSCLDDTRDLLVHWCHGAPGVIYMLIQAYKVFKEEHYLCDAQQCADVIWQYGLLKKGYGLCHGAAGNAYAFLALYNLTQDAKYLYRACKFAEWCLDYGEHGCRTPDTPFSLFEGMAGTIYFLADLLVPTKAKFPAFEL

Substance	Inhibition of LAT9991-PAL binding to LANCL3 by excess competitor ([1]; probe LAT9991-PAL, excess LAT8881)	Inhibition of LAT9993-PAL binding to recombinant LANCL3 by excess competitor ([1]; probe LAT9993-PAL (as in FIG. 11 legend), excess LAT8881)	LANCL1 level in LAT9991-PAL pull-down eluate in presence of excess competitor ([2]; 50 μM competitor, 10-fold excess over LAT9991-PAL)	Inhibition of PAL probe binding to LANCL1 from tissue homogenates by excess competitor ([3]; probes LAT9991-PAL, LAT9993-PAL, LAT7771-PAL, excess LAT8881)	Binding of PAL probe to recombinant LANCL3 ([1]; in-gel fluorescence after UV cross-linking)	Detection of LANCL1 in eluates of probe pull-down (Western Blot) ([2]; 5 μM probe, rat spinal cord microsomal fraction)	LANCL1 bound / enriched in PAL probe cross-linked samples (mass spectrometry) ([3]; vs un-crosslinked samples (CU) and samples with excess LAT8881 (COMP), 37 kDa band)
YLRIVQCRSVEGSCGF [LAT8881, a cyclic peptide fragment of human growth hormone]	inhibited	inhibited	reduced	inhibited			
LAT9991-PAL: cyclic peptide of SEQ ID NO:12 (LAT9991) conjugated to the PAL (Photo-Activated Labelling) grouping (CRSVEGSCG; disulfide 1-8 (inferred); also: PAL group on N-terminal Cys-Arg part)					binds	could only be detected in the eluates of LAT9991-PAL samples as a specifically bound protein	met the arbitrary statistical criteria for a “hit”; also recorded: enriched by several fold-changes; also recorded: bound to LANCL1
